Molecular target: human CD19 (human) (UniProt P15391)
Assay: cell-based or functional assay

Sequence of UniProt P15391 (P15391 20-556): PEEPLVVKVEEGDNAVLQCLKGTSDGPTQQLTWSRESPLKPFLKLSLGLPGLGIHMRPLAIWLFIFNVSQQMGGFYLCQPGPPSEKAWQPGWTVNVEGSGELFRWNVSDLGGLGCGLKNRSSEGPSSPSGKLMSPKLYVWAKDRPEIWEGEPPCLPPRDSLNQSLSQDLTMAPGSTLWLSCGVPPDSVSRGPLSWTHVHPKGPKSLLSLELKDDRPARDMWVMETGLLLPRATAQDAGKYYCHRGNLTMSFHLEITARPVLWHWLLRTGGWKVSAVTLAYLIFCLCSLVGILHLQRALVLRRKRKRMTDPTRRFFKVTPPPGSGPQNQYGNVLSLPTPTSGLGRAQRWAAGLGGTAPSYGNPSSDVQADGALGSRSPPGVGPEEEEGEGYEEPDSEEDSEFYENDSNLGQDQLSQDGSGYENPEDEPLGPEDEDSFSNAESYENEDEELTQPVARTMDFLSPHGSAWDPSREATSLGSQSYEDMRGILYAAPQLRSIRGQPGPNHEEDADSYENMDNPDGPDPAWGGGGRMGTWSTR

IFN-gamma secretion (ELISA), Hela-CD19 target cells: 8870 pg/mL
Substance: CD19 CAR (mouse FMC63 scFv, no TF)

Reference: patent US20200354451A1
